Key:
[1] = biological target: human CST (CTC1–STN1–TEN1) heterotrimer, recombinant, from HEK293T cells (human) (UniProt Q2NKJ3)
[2] = biological target: human CST (CTC1–STN1–TEN1) heterotrimer, recombinant, from HEK293T cells (human) (UniProt Q2NKJ3); assay: co-IP; successive anti-FLAG and anti-HA immunopurifications of 3×FLAG-CTC1, Myc-STN1 and HA-TEN1 from transfected HEK293T cells, 150 mM NaCl in the wash and elution buffers; subunits found by western blot and quantified against insect-cell standards

Sequence of Polα–primase (DNA polymerase α-primase), endogenous human enzyme, four subunits (Q14181 whole entry, looked up, tested part not stated): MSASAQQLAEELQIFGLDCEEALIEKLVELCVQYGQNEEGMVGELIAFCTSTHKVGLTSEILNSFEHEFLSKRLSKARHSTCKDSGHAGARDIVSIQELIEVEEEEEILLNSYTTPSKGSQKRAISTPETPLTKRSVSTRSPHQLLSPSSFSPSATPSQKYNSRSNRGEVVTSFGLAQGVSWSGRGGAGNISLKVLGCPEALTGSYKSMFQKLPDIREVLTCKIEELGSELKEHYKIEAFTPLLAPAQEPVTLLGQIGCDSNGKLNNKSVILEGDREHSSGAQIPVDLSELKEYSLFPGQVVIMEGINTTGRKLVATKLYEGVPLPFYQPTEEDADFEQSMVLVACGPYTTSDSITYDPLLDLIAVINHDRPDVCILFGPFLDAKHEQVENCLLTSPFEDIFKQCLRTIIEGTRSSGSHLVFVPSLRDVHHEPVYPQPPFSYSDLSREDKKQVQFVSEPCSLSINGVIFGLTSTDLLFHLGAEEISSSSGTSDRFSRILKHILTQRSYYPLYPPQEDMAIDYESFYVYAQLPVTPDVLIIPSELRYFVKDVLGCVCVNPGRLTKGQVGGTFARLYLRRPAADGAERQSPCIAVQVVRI
Sequence of Polα–primase (DNA polymerase α-primase), endogenous human enzyme, four subunits (P09884 whole entry, looked up, tested part not stated): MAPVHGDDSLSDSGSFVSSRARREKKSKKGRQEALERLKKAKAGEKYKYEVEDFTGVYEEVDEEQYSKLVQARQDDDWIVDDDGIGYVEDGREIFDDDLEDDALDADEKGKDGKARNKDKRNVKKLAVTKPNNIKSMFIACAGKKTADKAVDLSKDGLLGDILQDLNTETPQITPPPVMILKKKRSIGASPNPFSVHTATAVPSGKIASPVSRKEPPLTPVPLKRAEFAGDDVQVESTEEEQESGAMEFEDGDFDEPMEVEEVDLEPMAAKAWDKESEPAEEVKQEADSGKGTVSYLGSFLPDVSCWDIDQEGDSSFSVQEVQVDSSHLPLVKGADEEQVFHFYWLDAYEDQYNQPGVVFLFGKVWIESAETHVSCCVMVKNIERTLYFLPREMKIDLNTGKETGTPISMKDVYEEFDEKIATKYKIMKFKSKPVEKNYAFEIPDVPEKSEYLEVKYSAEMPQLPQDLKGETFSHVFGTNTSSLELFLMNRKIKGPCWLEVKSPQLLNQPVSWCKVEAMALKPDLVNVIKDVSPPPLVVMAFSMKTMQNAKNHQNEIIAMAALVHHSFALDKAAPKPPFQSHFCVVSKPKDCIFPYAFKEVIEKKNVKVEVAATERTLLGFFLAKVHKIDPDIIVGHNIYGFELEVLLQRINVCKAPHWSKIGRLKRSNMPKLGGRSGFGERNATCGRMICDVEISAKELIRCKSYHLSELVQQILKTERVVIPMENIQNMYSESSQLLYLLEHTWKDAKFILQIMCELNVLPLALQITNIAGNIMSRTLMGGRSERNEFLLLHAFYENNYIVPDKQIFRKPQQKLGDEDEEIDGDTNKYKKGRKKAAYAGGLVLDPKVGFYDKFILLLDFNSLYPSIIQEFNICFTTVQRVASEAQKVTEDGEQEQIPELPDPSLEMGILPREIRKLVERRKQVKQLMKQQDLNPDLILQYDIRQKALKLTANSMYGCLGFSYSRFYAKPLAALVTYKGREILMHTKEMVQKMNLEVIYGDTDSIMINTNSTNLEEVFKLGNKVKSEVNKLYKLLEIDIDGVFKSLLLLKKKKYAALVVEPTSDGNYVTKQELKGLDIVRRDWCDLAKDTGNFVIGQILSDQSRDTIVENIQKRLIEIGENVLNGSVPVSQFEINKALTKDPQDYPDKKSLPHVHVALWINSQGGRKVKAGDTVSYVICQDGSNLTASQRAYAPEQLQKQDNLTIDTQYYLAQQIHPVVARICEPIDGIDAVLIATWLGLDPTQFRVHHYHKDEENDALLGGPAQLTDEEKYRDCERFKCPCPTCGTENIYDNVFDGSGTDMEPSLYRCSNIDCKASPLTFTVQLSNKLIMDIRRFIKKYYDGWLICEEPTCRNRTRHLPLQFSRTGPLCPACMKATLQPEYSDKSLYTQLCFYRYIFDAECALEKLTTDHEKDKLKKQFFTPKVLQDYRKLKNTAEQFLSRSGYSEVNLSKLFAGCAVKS
Sequence of human CST (CTC1–STN1–TEN1) heterotrimer, recombinant, from HEK293T cells (human) (Q2NKJ3 whole entry, chain 1 of 3): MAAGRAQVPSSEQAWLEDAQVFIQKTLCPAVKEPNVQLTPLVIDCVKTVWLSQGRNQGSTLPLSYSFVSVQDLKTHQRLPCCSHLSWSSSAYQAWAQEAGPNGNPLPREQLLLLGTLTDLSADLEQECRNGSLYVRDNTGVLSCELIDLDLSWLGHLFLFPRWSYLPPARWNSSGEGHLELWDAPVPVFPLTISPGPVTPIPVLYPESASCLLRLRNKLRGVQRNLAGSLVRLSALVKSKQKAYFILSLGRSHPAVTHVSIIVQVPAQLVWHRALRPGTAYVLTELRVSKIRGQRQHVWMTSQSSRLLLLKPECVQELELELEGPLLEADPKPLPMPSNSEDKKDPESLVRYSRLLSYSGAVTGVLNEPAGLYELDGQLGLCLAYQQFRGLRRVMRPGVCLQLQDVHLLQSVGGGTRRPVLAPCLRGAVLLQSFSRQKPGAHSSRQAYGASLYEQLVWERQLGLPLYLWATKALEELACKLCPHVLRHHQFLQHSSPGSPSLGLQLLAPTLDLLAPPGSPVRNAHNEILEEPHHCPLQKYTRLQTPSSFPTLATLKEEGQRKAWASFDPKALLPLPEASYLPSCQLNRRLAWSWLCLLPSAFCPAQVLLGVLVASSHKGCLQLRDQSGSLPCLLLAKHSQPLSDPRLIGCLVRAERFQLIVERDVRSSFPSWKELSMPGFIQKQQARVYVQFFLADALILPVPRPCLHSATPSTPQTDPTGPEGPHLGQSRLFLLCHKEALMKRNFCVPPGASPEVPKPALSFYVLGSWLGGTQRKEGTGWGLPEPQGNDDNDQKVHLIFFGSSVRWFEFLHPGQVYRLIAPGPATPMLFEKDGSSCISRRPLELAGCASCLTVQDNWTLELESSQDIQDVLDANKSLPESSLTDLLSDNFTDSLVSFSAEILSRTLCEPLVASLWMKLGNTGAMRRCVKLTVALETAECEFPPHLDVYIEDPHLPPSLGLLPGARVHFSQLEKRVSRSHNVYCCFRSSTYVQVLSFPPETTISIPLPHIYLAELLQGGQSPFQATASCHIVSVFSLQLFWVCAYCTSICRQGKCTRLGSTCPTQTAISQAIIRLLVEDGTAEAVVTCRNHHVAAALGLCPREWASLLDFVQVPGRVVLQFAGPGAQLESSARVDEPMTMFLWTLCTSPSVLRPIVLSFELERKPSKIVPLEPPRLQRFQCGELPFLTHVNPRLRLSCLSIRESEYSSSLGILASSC
Sequence of human CST (CTC1–STN1–TEN1) heterotrimer, recombinant, from HEK293T cells (human) (Q9H668 whole entry, chain 2 of 3, further chain): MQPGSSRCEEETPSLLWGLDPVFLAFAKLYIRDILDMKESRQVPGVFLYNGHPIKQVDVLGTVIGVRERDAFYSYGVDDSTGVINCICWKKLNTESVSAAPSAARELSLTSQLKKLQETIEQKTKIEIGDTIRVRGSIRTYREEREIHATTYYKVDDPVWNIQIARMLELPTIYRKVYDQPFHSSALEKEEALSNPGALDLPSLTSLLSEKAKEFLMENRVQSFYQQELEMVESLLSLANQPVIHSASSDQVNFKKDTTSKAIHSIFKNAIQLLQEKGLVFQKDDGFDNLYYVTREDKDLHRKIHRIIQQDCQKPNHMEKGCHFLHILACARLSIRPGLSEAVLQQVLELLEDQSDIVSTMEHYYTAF
Sequence of human CST (CTC1–STN1–TEN1) heterotrimer, recombinant, from HEK293T cells (human) (Q86WV5 whole entry, chain 3 of 3, further chain): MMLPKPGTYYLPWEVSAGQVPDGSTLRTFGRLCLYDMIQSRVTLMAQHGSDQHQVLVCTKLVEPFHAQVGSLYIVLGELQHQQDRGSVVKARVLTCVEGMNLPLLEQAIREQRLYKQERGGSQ

C-strand synthesis activity of CST–Polα–primase from HEK cells relative to recombinant human Polα–primase from insect cells, high concentrations of enzyme and template DNA (5 µM, 15×TEL) [1]: > 10 fold | C-strand synthesis activity of CST–Polα–primase from HEK cells relative to recombinant human Polα–primase from insect cells, standard reaction conditions (100 nM template) [1]: > 10000 fold | stoichiometry in the purified preparation (POLA per CST) [2]: 0.21 POLA per CST
Substance: Polα–primase (DNA polymerase α-primase), endogenous human enzyme, four subunits (from UniProt P09884 1-1462; Q14181 1-598) (complex)

— publication PMC9402439
